Data published in paper PMC6128974.

T1: DOF3.4-ZF (Arabidopsis thaliana, UniProt Q39088 22-81)
T1 sequence: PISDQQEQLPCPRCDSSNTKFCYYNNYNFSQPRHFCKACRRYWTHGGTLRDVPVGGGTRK

T2: DOF5.8-ZF (Arabidopsis thaliana, UniProt Q9FGD6 24-83)
T2 sequence: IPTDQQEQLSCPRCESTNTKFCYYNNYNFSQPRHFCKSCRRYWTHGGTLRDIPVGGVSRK


Assays:
DOF3.4-ZF [1] = target: T1, DOF3.4-ZF; test: MST
DOF5.8-ZF [2] = target: T2, DOF5.8-ZF; test: MST
DOF3.4-ZF [3] = target: T1, DOF3.4-ZF; test: EMSA
DOF5.8-ZF [4] = target: T2, DOF5.8-ZF; test: EMSA

| Binder | Kd (DOF3.4-ZF [1]) [nM] | Kd (DOF5.8-ZF [2]) [nM] | binding result (DOF3.4-ZF [3]) | binding result (DOF5.8-ZF [4]) |
| --- | --- | --- | --- | --- |
| Double-motif probe, fluorescein (dsDNA) DNA 1: AAATAATCATAAAGTATTAAAGTAATATATAC DNA 2: GTATATATTACTTTAATACTTTATGATTATTT | 2300 ± 1000 | 2500 ± 1000 |  |  |
| Control for single-motif probe (dsDNA) DNA 1: AATCCAGCGATGTAGAGGAG DNA 2: CTCCTCTACATCGCTGGATT |  |  | no binding | no binding |
| Control for double-motif probe (dsDNA) DNA 1: AAATAATCATGCGATATTGCGAAATATATAAC DNA 2: GTTATATATTTCGCAATATCGCATGATTATTT |  |  | no binding | no binding |
